Measured values taken from patent US20200017552A1.

Experiments:
[1] = target: HA of Ft. Monmouth influenza virus (on virions) (influenza virus strain Ft. Monmouth); assay: cell-based or functional assay
[2] = target: Influenza H1 hemagglutinin (HA), strain not stated for this experiment; assay: biolayer interferometry after incubation at 80 °C; HA strain not stated

## mAb FI6v3 (antibody)
[1]
  EC50 values for inhibition of viral replication in vitro: 3.1 µg/mL
[2]
  reduction of binding activity after 1 hr at 80 °C: 74%
